Data published in patent US20200297760A1 (JUNO THERAPEUTICS, published 2020).
No end group written: not given here.

How the values were obtained:
[1] = biological target: T1, HLA-A*02:01 (recombinant MHC class I molecule) (human); assay: REVEAL MHC-peptide binding assay, recombinant MHC, score normalised to positive control = 100
T1 construct: Recombinant MHC used in the ProImmune REVEAL assay; also called HLA-A2:01
Method: (§1) Specifically, assessment was of a series of overlapping 9-mer peptides derived from the sequence […] (set forth in SEQ ID NO: 7), which contains a portion of the CD28 transmembrane domain and 4-1BB costimulatory domain spanning the junction between the domains (bond joining the two amino acids noted in underline). In addition, a series of overlapping 9-mer peptides of each of a number of different variants of this portion also were assessed, each variant containing a mutation or mutations in this region as described in Example 2.
(§2) The various 9-mer overlapping peptides were synthesized and their purity tested by MALDI-TOF Mass Spectrometry.

HLA-A*03:01 = biological target: T2, HLA-A*03:01 (human); assay: REVEAL MHC-peptide binding assay, recombinant HLA
T2 construct: recombinant MHC class I molecule incubated with the synthetic peptide (REVEAL, ProImmune)
Method: as §1, §2

HLA-A*02:01 = biological target: T3, HLA-A*02:01 (human); assay: REVEAL MHC-peptide binding assay, recombinant HLA
T3 construct: recombinant MHC class I molecule incubated with the synthetic peptide (REVEAL, ProImmune)
Method: as §1, §2

[2] = biological target: T4, HLA-A*11:01 (recombinant MHC class I molecule) (human); assay: REVEAL MHC-peptide binding assay, stabilisation of ternary complex with recombinant MHC
T4 construct: Recombinant MHC molecule of the ProImmune REVEAL assay
Method: as §1, §2

[3] = biological target: T5, HLA-B*08:01 (recombinant MHC class I molecule) (human); assay: as above
T5 construct: Recombinant MHC molecule of the ProImmune REVEAL assay
Method: as §1, §2

[4] = biological target: T6, HLA-A*03:01 (recombinant MHC class I molecule) (human); assay: REVEAL MHC-peptide binding assay, recombinant MHC, score normalised to positive control = 100
T6 construct: Recombinant MHC used in the ProImmune REVEAL assay
Method: as §1, §2

Row | Binder | In Vitro Score (HLA-A*03:01) | In Vitro Score (HLA-A*02:01) | other results
1 | AFIIFWVRR (Synthetic 9-mer junction variant) [Synthetic peptide AFIIFWVRR (K28R)] |  |  | In Vitro Score [1]: 1.4 % of positive control peptide
2 | AFIIFWVKR (synthetic 9-mer of the CD28-4-1BB junction; mutation: none) | 5.7 % of positive control peptide | 0.5 % of positive control peptide | 
3 | AFIIFWVLR (synthetic 9-mer variant; the entry already carries the change) | 0.3 % of positive control peptide | 5.7 % of positive control peptide | 
4 | AFIIFWVQR (synthetic 9-mer variant; the entry already carries the change) | 0.2 % of positive control peptide | 0.4 % of positive control peptide | 
5 | WVKRGRKKA (Synthetic 9-mer from the CD28 transmembrane / 4-1BB costimulatory junction region of a CAR) [WVKRGRKKA synthetic peptide L34A (SEQ ID NO: 90)] |  |  | In Vitro Score [2]: 3.1 % of positive control peptide; In Vitro Score [3]: 3.1 % of positive control peptide
6 | FIIFWVKRG (synthetic 9-mer of the CD28-4-1BB junction; mutation: none) | 1.4 % of positive control peptide | 10.1 % of positive control peptide | 
7 | FIIFWVQRG (synthetic 9-mer variant; the entry already carries the change) | 0.4 % of positive control peptide | 16.8 % of positive control peptide | 
8 | FIIFWVLRG (synthetic 9-mer variant; the entry already carries the change) | 0.1 % of positive control peptide | 7.2 % of positive control peptide | 
9 | FIIFWVSRG (synthetic 9-mer variant; the entry already carries the change) | 0.1 % of positive control peptide | 0.2 % of positive control peptide | 
10 | VAFIIFWVA (synthetic 9-mer variant; the entry already carries the change) | 0 % of positive control peptide | 28.5 % of positive control peptide | 
11 | VAFIIFWVH (synthetic 9-mer variant; the entry already carries the change) | 0.3 % of positive control peptide | 3.1 % of positive control peptide | 
12 | VAFIIFWVL (synthetic 9-mer variant; the entry already carries the change) | 0 % of positive control peptide | 0.2 % of positive control peptide | 
13 | VAFIIFWVQ (synthetic 9-mer variant; the entry already carries the change) | 0.2 % of positive control peptide | 5.3 % of positive control peptide | 
14 | WVQRGNKKS (not fully specified, Synthetic 9-mer from the CD28/4-1BB junction region) [WVQRGNKKS synthetic peptide K28Q/L34S (SEQ ID NO: 91)] |  |  | In Vitro Score [2]: 5 % of positive control peptide; In Vitro Score [3]: 0 % of positive control peptide
15 | WVQRGNKKA (not fully specified, Synthetic 9-mer from the CD28/4-1BB junction region) [WVQRGNKKA synthetic peptide K28Q/L34A (SEQ ID NO: 92)] |  |  | In Vitro Score [2]: 0.8 % of positive control peptide; In Vitro Score [3]: 0.7 % of positive control peptide
16 | AFIIFWVRR (Synthetic 9-mer from the CD28/4-1BB junction region) [AFIIFWVRR synthetic peptide K28R (SEQ ID NO: 101)] |  |  | In Vitro Score [2]: 1.5 % of positive control peptide; In Vitro Score [3]: 0.3 % of positive control peptide
17 | WVQRGNKKS (not fully specified, Synthetic 9-mer junction variant) [Synthetic peptide WVQRGNKKS (K28Q/L34S as labelled)] |  |  | In Vitro Score [4]: 0.7 % of positive control peptide; In Vitro Score [1]: 1.2 % of positive control peptide
18 | WVQRGNKKA (not fully specified, Synthetic 9-mer junction variant) [Synthetic peptide WVQRGNKKA (K28Q/L34A as labelled)] |  |  | In Vitro Score [4]: 1.2 % of positive control peptide; In Vitro Score [1]: 1.9 % of positive control peptide
19 | WVKRGRKKL (synthetic 9-mer of the CD28-4-1BB junction; mutation: none) | 13.1 % of positive control peptide | 1.4 % of positive control peptide | 
20 | WVHRGRKKL (synthetic 9-mer variant; the entry already carries the change) | 3.4 % of positive control peptide | 1.6 % of positive control peptide | 
21 | WVSRGRKKL (synthetic 9-mer variant; the entry already carries the change) | 2.1 % of positive control peptide | 2.3 % of positive control peptide | 
22 | WVLRGRKKL (synthetic 9-mer variant; the entry already carries the change) | 0.7 % of positive control peptide | 2.4 % of positive control peptide | 
23 | WVKRGRKKS (synthetic 9-mer variant; the entry already carries the change) | 0.9 % of positive control peptide | 3.9 % of positive control peptide | 
24 | WVQRGAKKL (synthetic 9-mer variant; the entry already carries the changes) | 2 % of positive control peptide | 3 % of positive control peptide | 
25 | WVKRGLKKL (synthetic 9-mer variant; the entry already carries the change) | 10 % of positive control peptide | 24.5 % of positive control peptide | 
26 | WVQRGSKKL (synthetic 9-mer variant; the entry already carries the changes) | 1.2 % of positive control peptide | 4.4 % of positive control peptide | 
27 | WVKRGRKKA (Synthetic 9-mer variant of the CD28 transmembrane / 4-1BB costimulatory junction region) [Synthetic peptide WVKRGRKKA (L34A)] |  |  | In Vitro Score [4]: 0.9 % of positive control peptide; In Vitro Score [1]: 4.5 % of positive control peptide
